The text below walks through data of article doi:10.1101/2022.11.05.515280.

In assay [1] the target is human Mcl-1 ΔPESTΔTM (human). The assay can be described thus: NMR titration.
Assay [2] addresses human Mcl-1 ΔPESTΔTM (human). The assay can be described thus: NMR titration. This is another data set of the same source.
Assay [3] addresses human Mcl-1 ΔPESTΔTM (human). The assay can be described thus: SEC + other: SAXS.

Like-named read-outs stand apart in the source and are kept apart here.

As to Mule BH3 peptide (MuleBH3), in assay [1], the relative population of Mcl-1 bound, in the mix of three peptides is 55%.

B1: TCTP BH3-like peptide (TCTPBH3) (peptide)
peptide: DEMFSDIYKIREIADGLCLEVE
With B1, in assay [2], the dissociation constant Kd (in general, the free concentration of one partner at which half of the binding sites on the other are occupied at equilibrium, for simple one-to-one binding) was 7.9 µM; the fold weaker relative affinity than TCTPBH3D16I and MuleBH3 was more than 10 fold.

B2: TCTP BH3-like peptide D16I mutant (TCTP_(BH3D16I)) (peptide)
peptide: DEMFSIIYKIREIADGLCLEVE
Molecule B2 gave a relative population of Mcl-1 bound, in the mix of three peptides in assay [2] of 45%.

B3: full length human TCTP (Translationally Controlled Tumour Protein) (natural protein)
chain: MIIYRDLISHDEMFSDIYKIREIADGLCLEVEGKMVSRTEGNIDDSLIGGNASAEGPEGEGTESTVITGVDIVMNHHLQETSFTKEAYKKYIKDYMKSIKGKLEEQRPERVKPFMTGAAEQIKHILANFKNYQFFIGENMNPDGMVALLDYREDGVTPYMIFFKDGLEMEKC
B3: in assay [3], the stoichiometry N (usually the number of molecules, sites or subunits per partner or assembly) stood at 1.
